Measured values reported in the supplement of paper PMC7877785.
± gives the uncertainty stated by the source.

Assay: self-splicing fitness, log relative to wild type (ln ratio); higher = more splicing; Tetrahymena group I intron in knt gene, E. coli kanamycin selection, DiMSum; sequences stand for … in CUCUCU…GGAGGGAAAAGUUAUCAGGCAUGCACCUGGUAGCUAGUCUUUAAACCAAUAGAUUGCAUCGGUUUAAAAGGCAAGACCGUCAAAUUGCGGGAAAGGGGUCAACAGCCGUUCAGUACCAAGUCUCAGGGGAAACUUUGAGAUGGCCUUGCAAAGGGUAUGGUAAUAAGCUGACGGACAUGGUCCUAACCACGCAGCCAAGUCCUAAGUCAACAGAUCUUCUGUUGAUAUGGAUGCAGUUCACAGACUAAAUGUCGGUCGGGGAAGAUGUAUUCUUCUCAUAAGAUAUAGUCGGACCUCUCCUUAAUGGGAGCUAGCGGAUGAAGUGAUGCAACACUGGAGCCGCUGGGAACUAAUUUGUAUGCGAAAGUAUAUUGAUUAGUUUUGGAGUACUCGUGGUCG
Summary of the method: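 Colonies from six replicate transformations of E. coli BL21(DE3) were pooled and amplicon-sequenced on an Illumina HiSeq 2500. The library placed an intron with all eight P1ex-region nucleotides randomised inside the knt kanamycin-resistance gene on pET-22b(+), and cells grew overnight at 37°C or 30°C on LB agar with or without 25 μg/mL kanamycin (plus 100 μg/mL carbenicillin, 50 μM IPTG, 0.2% rhamnose). Fitness is the DiMSum error-weighted combination of wild-type-normalised replicate fold changes, kanamycin versus none.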

| Sequence | self-splicing fitness (ln) (37 °C) | self-splicing fitness (ln) (30 °C) |
| --- | --- | --- |
| GACUAGCAAUAUUACGAGUC | -2.36 ± 0.39 |  |
| ACGGAGCAAUAUUACGAAGA | -0.799 ± 0.24 |  |
| UCCUAGCAAUAUUACGAAAG |  | -2.86 ± 0.33 |
| AGUCAGCAAUAUUACGUGCU | -1.43 ± 0.12 | -2.18 ± 0.12 |
| UUGUAGCAAUAUUACGCCUG | 0.399 ± 0.15 | 0.32 ± 0.14 |
| AACCAGCAAUAUUACGGACU | 0.226 ± 0.082 | -0.113 ± 0.061 |
| UUCAAGCAAUAUUACGGGUA | -0.182 ± 0.08 | -0.67 ± 0.085 |
| UCCGAGCAAUAUUACGUAAA |  | -2.8 ± 0.28 |
| UAUAAGCAAUAUUACGAUAU | -1.96 ± 0.2 | -2.9 ± 0.21 |
| UUGGAGCAAUAUUACGUGUU | -2.79 ± 0.33 | -2.58 ± 0.2 |
| UCACAGCAAUAUUACGAAGU | -3.34 ± 0.31 | -2.55 ± 0.22 |
| CCCGAGCAAUAUUACGCAAC | -2.23 ± 0.34 |  |
| GUUCAGCAAUAUUACGGUUU | -0.0386 ± 0.061 | -0.523 ± 0.052 |
| AAAAAGCAAUAUUACGUGAU | -0.588 ± 0.09 | -2.07 ± 0.072 |
| GCCAAGCAAUAUUACGCUCA | 0.0485 ± 0.12 | -0.458 ± 0.093 |
| UUCAAGCAAUAUUACGCGAG | -1.33 ± 0.1 | -2.19 ± 0.096 |
| CUUGAGCAAUAUUACGAGUU | -2.33 ± 0.17 | -4.15 ± 0.23 |
| CCGCAGCAAUAUUACGUCAA | -3.04 ± 0.27 | -4.05 ± 0.33 |
| UCUUAGCAAUAUUACGCCGG | 0.459 ± 0.31 | -1.85 ± 0.26 |
| UCGAAGCAAUAUUACGUAUA | -1.58 ± 0.18 | -3.1 ± 0.22 |
| AACUAGCAAUAUUACGCCUC | -0.975 ± 0.24 | -2.29 ± 0.3 |
| GUACAGCAAUAUUACGUAGA | -1.35 ± 0.14 | -2.65 ± 0.11 |
| UAUGAGCAAUAUUACGCUCU |  | -3.16 ± 0.41 |
| UUCUAGCAAUAUUACGCACU | -1.69 ± 0.38 | -1.79 ± 0.29 |
| AACAAGCAAUAUUACGGAGU | -1.58 ± 0.078 | -2.72 ± 0.07 |
| AGUAAGCAAUAUUACGUUCA | -0.266 ± 0.12 | -1.29 ± 0.095 |
| AAAGAGCAAUAUUACGGAUC | -2.56 ± 0.15 | -2.89 ± 0.2 |

| Sequence | self-splicing fitness (ln) (37 °C) | self-splicing fitness (ln) (30 °C) |
| --- | --- | --- |
| AACCAGCAAUAUUACGGUGU | -2.56 ± 0.11 | -1.87 ± 0.061 |
| ACGUAGCAAUAUUACGCCUC | -2.16 ± 0.41 | -2.48 ± 0.38 |
| CUGUAGCAAUAUUACGGGGA | -2.9 ± 0.24 | -2.67 ± 0.17 |
| UGAGAGCAAUAUUACGCAAG | -2.74 ± 0.44 | -3.21 ± 0.32 |
| UUUUAGCAAUAUUACGUGCG | -0.84 ± 0.13 | -1.42 ± 0.17 |
| CGAGAGCAAUAUUACGAACA | -2.84 ± 0.41 | -2.54 ± 0.3 |
| UCCAAGCAAUAUUACGCAGG | -2.05 ± 0.26 | -3.56 ± 0.43 |
| UCUAAGCAAUAUUACGCGGC | -1.59 ± 0.36 |  |
| UAUUAGCAAUAUUACGUGAG | 0.0296 ± 0.13 | -1.55 ± 0.094 |
| GUGCAGCAAUAUUACGGAUA | -1.79 ± 0.19 | -1.76 ± 0.15 |
| GCGGAGCAAUAUUACGAUCU | -0.0473 ± 0.33 | -1.97 ± 0.25 |
| AGUAAGCAAUAUUACGGGUC | -2.92 ± 0.31 | -3.31 ± 0.42 |
| GUCCAGCAAUAUUACGGCUA | 0.143 ± 0.073 | -0.25 ± 0.068 |
| ACCGAGCAAUAUUACGGUCU | -1.62 ± 0.092 | -3.36 ± 0.1 |
| CGGCAGCAAUAUUACGUCAG | -0.000984 ± 0.1 | -2.04 ± 0.099 |
| GCCCAGCAAUAUUACGAUCG | -1.44 ± 0.1 | -3.49 ± 0.12 |
| AGGGAGCAAUAUUACGGAAA | -2.34 ± 0.42 | -2.4 ± 0.34 |
| UACGAGCAAUAUUACGAGGA | -2.48 ± 0.22 | -3.51 ± 0.26 |
| UAGCAGCAAUAUUACGCGUC | -2.87 ± 0.22 | -3.43 ± 0.2 |
| UAGAAGCAAUAUUACGUAUC | -2.01 ± 0.15 | -3.43 ± 0.28 |
| UAAUAGCAAUAUUACGCGUC | -2 ± 0.38 | -2.88 ± 0.36 |
| CUCUAGCAAUAUUACGACUA | -1.71 ± 0.28 |  |
| GUACAGCAAUAUUACGAAAA | -2.31 ± 0.25 | -1.66 ± 0.19 |
| UCUCAGCAAUAUUACGCGUG | -3.11 ± 0.21 | -4.26 ± 0.24 |
| UAUUAGCAAUAUUACGGUCG | 0.383 ± 0.23 | -0.442 ± 0.13 |
| CUAGAGCAAUAUUACGCUCU | -2.8 ± 0.43 | -2.43 ± 0.28 |
| GAGUAGCAAUAUUACGGGUG | -1.71 ± 0.14 | -2.78 ± 0.14 |

| Sequence | self-splicing fitness (ln) (37 °C) | self-splicing fitness (ln) (30 °C) |
| --- | --- | --- |
| GCUCAGCAAUAUUACGUCGU | 0.486 ± 0.082 | -0.158 ± 0.057 |
| CUUGAGCAAUAUUACGUGGU | -2.74 ± 0.19 | -2.61 ± 0.15 |
| UGCAAGCAAUAUUACGCUUC | -3.33 ± 0.32 | -3.15 ± 0.24 |
| GGAUAGCAAUAUUACGUAUU | -2.21 ± 0.28 | -3.05 ± 0.2 |
| ACCUAGCAAUAUUACGGCAU | 0.451 ± 0.09 | -0.00618 ± 0.076 |
| AGUAAGCAAUAUUACGGUGA | -1.21 ± 0.14 | -2.73 ± 0.17 |
| GUGCAGCAAUAUUACGCAGG | -3.12 ± 0.18 | -2.59 ± 0.12 |
| CUCUAGCAAUAUUACGUCCA | -2.12 ± 0.4 |  |
| AAAAAGCAAUAUUACGAACU | -0.079 ± 0.087 | -0.488 ± 0.07 |
| GCCUAGCAAUAUUACGACGC | 0.255 ± 0.11 | -0.302 ± 0.091 |
| UUCUAGCAAUAUUACGUCUA | -2.2 ± 0.17 | -3.64 ± 0.26 |
| AGCAAGCAAUAUUACGGCAU | -0.204 ± 0.092 | -0.0513 ± 0.084 |
| GGUCAGCAAUAUUACGGAUU | -0.499 ± 0.1 | -0.77 ± 0.079 |
| CGCUAGCAAUAUUACGCGAA | -2.95 ± 0.43 |  |
| AUGUAGCAAUAUUACGCCCA | -0.148 ± 0.2 | -0.905 ± 0.12 |
| ACAUAGCAAUAUUACGAGAA | -2.35 ± 0.25 | -2.62 ± 0.29 |
| AGUGAGCAAUAUUACGUAUA | -2.72 ± 0.27 | -2.18 ± 0.25 |
| UAAAAGCAAUAUUACGGCCA | 0.573 ± 0.19 | 0.0708 ± 0.15 |
| CAAGAGCAAUAUUACGUGCA | -3.06 ± 0.43 | -2.97 ± 0.21 |
| AGCAAGCAAUAUUACGAUUA | -0.818 ± 0.081 | -1.56 ± 0.093 |
| ACAUAGCAAUAUUACGGGUU | -1.77 ± 0.11 | -2.41 ± 0.08 |
| CAGAAGCAAUAUUACGUUGC | -2.74 ± 0.25 | -4.27 ± 0.26 |
| UAGAAGCAAUAUUACGUGGC | -3.09 ± 0.25 | -3.12 ± 0.21 |
| GUCUAGCAAUAUUACGACGU | 0.696 ± 0.17 | -0.253 ± 0.15 |
| CUACAGCAAUAUUACGUGCA | -2.5 ± 0.18 | -3.73 ± 0.35 |
